25 molecules from patent US20220041674A1 (published 2022) can be followed below.

The target of test [1] is human chemokine receptor 4 (CXCR4) (human) (UniProt P61073). The experiment in a line: competitive radioligand binding on Jurkat cells (400.000 cells/sample), [125I]FC-131.
The target is the same in test [2]. The experiment in a line: competitive radioligand binding on Jurkat cells, [125I]FC131 0.1 nM, 2 h RT.
The target is the same in test [3]. The test is described as follows: cell-based or functional assay.
The target of test [4] is T1, murine chemokine receptor 4 (CXCR4) (murine, UniProt P70658 1-359).
T1 construct: whole, on cells; receptor present on whole cells; also called mCXCR4; mouse CXCR4
T1 sequence (P70658 whole entry): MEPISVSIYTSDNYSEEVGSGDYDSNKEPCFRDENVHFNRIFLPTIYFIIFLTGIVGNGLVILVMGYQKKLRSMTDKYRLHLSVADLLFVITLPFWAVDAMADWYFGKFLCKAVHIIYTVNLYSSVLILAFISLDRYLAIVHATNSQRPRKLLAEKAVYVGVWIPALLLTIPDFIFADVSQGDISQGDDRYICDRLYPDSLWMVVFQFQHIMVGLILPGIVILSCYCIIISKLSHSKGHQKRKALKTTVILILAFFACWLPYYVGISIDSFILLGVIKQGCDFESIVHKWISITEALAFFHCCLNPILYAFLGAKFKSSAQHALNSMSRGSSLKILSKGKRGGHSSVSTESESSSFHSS
The test is described as follows: competitive radioligand binding on Eµ-Myc1080 mouse B-cell lymphoma cells, [125I]CPCR4.3.

Non-standard residues stand in square brackets, D forms with d. Nal = naphthylalanine

Sequence of human chemokine receptor 4 (CXCR4) (human) (P61073 whole entry): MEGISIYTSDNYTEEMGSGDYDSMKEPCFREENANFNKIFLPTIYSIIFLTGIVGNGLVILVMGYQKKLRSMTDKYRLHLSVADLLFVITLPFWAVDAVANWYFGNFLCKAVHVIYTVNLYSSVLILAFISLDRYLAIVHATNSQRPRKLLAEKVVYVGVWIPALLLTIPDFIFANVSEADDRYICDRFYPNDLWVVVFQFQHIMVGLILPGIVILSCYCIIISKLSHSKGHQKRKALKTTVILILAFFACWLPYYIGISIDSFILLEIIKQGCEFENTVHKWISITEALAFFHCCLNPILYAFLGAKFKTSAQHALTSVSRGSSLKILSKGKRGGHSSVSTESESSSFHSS

The molecule “cyclo[i-yorn′(AMBF3(methyl(1H-1,2,3-triazol-4-yl)4-amino)benzoyl-)RNaIG] (F1) (peptide)” had an IC50 in test [1] of 134 nM.

Turning to “cyclo[yorn′([natLu]DOTA-kG-(4-amino)benzoyl-)RNaIG ([natLu]P3b) (peptide)”, the IC50 in test [1] and in test [2] was 8 nM each time.

Consider “cyclo[yorn′([natGa]DOTA-rG-(4-amino)benzoyl-)RNaIG ([natGa]P4b) (peptide)”, for which the IC50 in test [1] and in test [2] was 9.7 nM throughout.

Turning to “cyclo[yorn′([natGa]DOTA-kG-(4-amino)benzoyl-)RNaIG ([natGa]P3b) (peptide)”, the IC50 in test [1] and in test [2] was 8.9 nM each time.

For the molecule “cyclo[-yorn′(AMBF3(methyl(1H-1,2,3-triazol-4-yl)-rG-4-amino)benzoyl-)RNaIG] (F3b) (peptide)”, in test [1], the half-maximal inhibitory concentration (IC50) was 2.4 nM.

“cyclo[i-yorn′([natLu]DOTA-d-(4-amino)benzoyl-)RNaIG ([natLu]P1) (peptide)”: the IC50 in test [1] and in test [2] was 106 nM throughout.

“cyclo[i-yorn′([natY]DOTA-dapG-(4-amino)benzoyl-)RNaIG ([natY]P2) (peptide)” yielded an IC50 in test [1] of 4.1 nM.

Consider “cyclo[i-yorn′([natLu]DOTA-kG-(4-amino)benzoyl-)RNaIG ([natLu]P3) (peptide)”, for which the IC50 in test [1] and in test [2] was 3.6 nM throughout.

Regarding “cyclo[yorn′([natY]DOTA-ra-(4-amino)benzoyl-)RNaIG ([natY]P5b) (peptide)”, the IC50 in test [1] stood at 0.3 nM.

Regarding “cyclo[yorn′([natY]DOTA-kG-(4-amino)benzoyl-)RNaIG ([natY]P3b) (peptide)”, the IC50 in test [1] was found to be 6.3 nM.

Consider “^natLu-pentixafor, natLu complex of cyclo(D-Tyr1-D-[NMe]Orn2(AMBS-DOTA)-Arg3-Nal4-Gly5) (peptide)”, for which the IC50 in test [2] stood at 41 nM.

In the case of “cyclo[i-yorn′([natGa]DOTA-kG-(4-amino)benzoyl-)RNaIG ([natGa]P3) (peptide)”, the IC50 in test [1] and in test [2] was 2.4 nM throughout.

The molecule “cyclo[i-yorn′([natLu]DOTA-ra-(4-amino)benzoyl-)RNaIG ([natLu]P5) (peptide)” registered a specific internalized activity (hCXCR4+ Chem 1 cells, 37 °C, 1.0 nM peptide, 60 min) in test [3] of 36.7%.

Molecule “^natLu-pentixather, natLu complex of cyclo(D-3-iodo-Tyr1-D-[NMe]Orn2(AMBS-DOTA)-Arg3-Nal4-Gly5) (peptide)” had a specific internalized activity (hCXCR4+ Chem 1 cells, 37 °C, 1.0 nM peptide, 60 min) in test [3] of 3.8%.

Take “cyclo[i-yorn′([natBi]DOTA-kG-(4-amino)benzoyl-)RNaIG ([natBi]P3) (peptide)”: in test [1], the 50% inhibitory concentration (IC50) stood at 38 nM.

Take “cyclo[yorn′([natGa]DOTA-ra-(4-amino)benzoyl-)RNaIG ([natGa]P5b) (peptide)”: the IC50 in test [1] and in test [2] was 0.4 nM throughout.

“^natGa-pentixafor, natGa complex of cyclo(D-Tyr1-D-[NMe]Orn2(AMBS-DOTA)-Arg3-Nal4-Gly5) (peptide)” displayed an IC50 in test [2] of 24.8 nM.

For the molecule “cyclo[i-yorn′([natGa]DOTA-dapG-(4-amino)benzoyl-)RNaIG ([natGa]P2) (peptide)”, the concentration for half-maximal inhibition (IC50) in test [1] and in test [2] was 3.6 nM each time.

As for “cyclo[i-yorn′(AMBF3(methyl(1H-1,2,3-triazol-4-yl)-vG-4-amino)benzoyl-)RNaIG] (F2) (peptide)”, the IC50 in test [1] is 65.2 nM.

In the case of “cyclo[yorn′([natY]DOTA-rG-(4-amino)benzoyl-)RNaIG ([natY]P4b) (peptide)”, the IC50 in test [1] is 8.7 nM.

Regarding “cyclo[yorn′([natLu]DOTA-ra-(4-amino)benzoyl-)RNaIG ([natLu]P5b) (peptide)”, the specific internalized activity (hCXCR4+ Chem 1 cells, 37 °C, 1.0 nM peptide, 60 min) in test [3] turned out to be 21.2%.

For “cyclo[yorn′([natLu]DOTA-rG-(4-amino)benzoyl-)RNaIG ([natLu]P4b) (peptide)”, the IC50 in test [1] and in test [2] was 5.4 nM throughout.

In turn, “cyclo[i-yorn′(AMBF3(methyl(1H-1,2,3-triazol-4-yl)-kG-4-amino)benzoyl-)RNaIG] (F4) (peptide)” had an IC50 in test [1] of 3.8 nM.

Consider “cyclo[i-yorn′([natY]DOTA-kG-(4-amino)benzoyl-)RNaIG ([natY]P3) (peptide)”, for which the IC50 in test [1] was 2.4 nM.

B1: FC131, c[yRRNaIG] (R2) (peptide)
peptide: cyclo([dY]RR[Nal]G)
notes: stands under the natLu column heads although it carries no chelator; also called cyclo(Gly-Nal-Arg-Arg-D-Tyr)
Turning to B1, in test [4], the IC50 worked out at 119 nM.
